Results taken from patent publication US20040265972A1 (published 2004).

Molecular target: T1, human TSH receptor stably expressed on Chinese Hamster Ovary (CHO) cells (CHO-hTSHR clone JP09 and clone JP26) (human, UniProt P16473 21-764)
T1 construct: whole, on cells; also called hTSH receptor; CHO-JPO9
Assay: told in words; bioactivity assay on CHO-JPO9 cells expressing the TSH receptor

B1: mutant TSH heterodimer of wild type human common α-subunit and mutant human TSH-β subunit βE6N (ligand)
alpha: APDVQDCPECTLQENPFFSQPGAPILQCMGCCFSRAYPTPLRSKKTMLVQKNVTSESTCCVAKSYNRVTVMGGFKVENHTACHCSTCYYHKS
beta: FCIPTNYTMHIERRECAYCLTINTTICAGYCMTRDINGKLFLPKYALSQDVCTYRDFIYRTVEIPGCPLHVAPYFSYPVALSCKCGKCNTDYSDCIHEAIKTNYCTKPQKSYLVGFSV
modifications: Both subunits are N-glycosylated (secreted from CHO-K1 cells). They form a noncovalent heterodimer. The letters carry neither feature.
notes: Transiently expressed in CHO-K1 cells
**Q.** Does B1 bind?
**A.** Result: binds
